# Paper PMC8948829, “The Escherichia coli Amino Acid Uptake Protein CycA: Regulation of Its Synthesis and Practical Application in l-Isoleucine Production”
# B1: PcycA fragment 2 (73 bp) (dsDNA)
# DNA 1: CAAAGACCCCGTAAGCGTGTATTTTTGTGAGCTGTTTCGCGTTATCACCGTGATATGACACTCACTTTAAACA
# DNA 2: TGTTTAAAGTGAGTGTCATATCACGGTGATAACGCGAAACAGCTCACAAAAATACACGCTTACGGGGTCTTTG
# Target: Crp (CRP, cAMP receptor protein) (Escherichia coli (purified from strain …, UniProt P0ACJ8 1-210))
# Assay: EMSA; 20 uM cAMP; 12 ng Crp, 50 ng probe; 10 mM Tris-HCl pH 7.5, 1 mM EDTA, 100 mM KCl, 1 mM DTT, BSA (printed 10 g/mL), 5% glycerol, 20 uM cAMP, room temperature 30 min; 6% native PAGE, 1x TAE, 4 C
# Conditions: protein: recombinant; tags: none (native His residues used for Ni-NTA); chain copies: 2; label: 5'-TAMRA on strand 2 (primer P11); blunt
# Chain of Crp (CRP, cAMP receptor protein) (Escherichia coli (P0ACJ8 whole entry): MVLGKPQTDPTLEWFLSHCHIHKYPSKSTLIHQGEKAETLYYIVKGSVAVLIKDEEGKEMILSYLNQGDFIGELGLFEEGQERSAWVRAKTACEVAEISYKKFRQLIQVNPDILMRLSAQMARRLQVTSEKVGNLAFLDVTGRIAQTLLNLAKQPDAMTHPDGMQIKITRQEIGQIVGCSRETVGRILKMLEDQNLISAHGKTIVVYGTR
binder,measurement,value
B1,binding result,binds
